The data set can be described thus: protein stability index of a GFP-peptide fusion (GPS, HEK-293T) (PSI 1-6); higher = more stable. Conditions: c terminus: a fixed tail appended.

± gives the standard deviation.
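Further: 24-mer peptide tiles fused after GFP, lentivirally expressed, FACS-sorted into six equal bins by GFP/DsRed ratio, decoded by Illumina sequencing, PSI is the read-weighted mean bin number.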

On to RIADKFTQHNFQEVMESEEFMLLP [KLHL20], for which the protein stability index reads like this: (treatment: DMSO) 3.5 ± 0.35; (treatment: MLN4924 1 uM, 8 h) 3.54 ± 0.22.
For RIHSGEEPHKCPECGKRFLRSSDL [ZNF449], in that order: 3.51 ± 0.73 and 4.09 ± 0.34.
For the sequence RLFTQLKFGVVQTSVEECSQKGCL [CLCN6], the protein stability index runs as follows: (treatment: DMSO) 2.29 ± 0.46; (treatment: MLN4924 1 uM, 8 h) 2.61 ± 0.27.
Regarding RLHHPHKSVQHVVLQALFYLLDRA [PTPN9], the protein stability index reads like this: (treatment: DMSO) 2.28 ± 0.21; (treatment: MLN4924 1 uM, 8 h) 2.13 ± 0.36.
On to RLLMSQADKMTAEEVDQMFQFASI [MYL5], for which the protein stability index came to 3.06 ± 0.26 (treatment: DMSO) and 3.1 ± 0.37 (treatment: MLN4924 1 uM, 8 h).
For RLNIKKDDEFFHFVLLCFAIGALL [TMEM40], the protein stability index reads like this: (treatment: DMSO) 2.73 ± 0.8; (treatment: MLN4924 1 uM, 8 h) 2.19 ± 0.54.
For RLPRAIGMSLAKELIFSARVLDGK [AUH], the protein stability index is, setting by setting: (treatment: DMSO) 1.83 ± 0.39; (treatment: MLN4924 1 uM, 8 h) 1.9 ± 0.2.
RLVLDAALALQARGCSVKIWTAHY [ALG2]: the protein stability index reads like this: (treatment: DMSO) 2.87 ± 0.68; (treatment: MLN4924 1 uM, 8 h) 2.69 ± 0.72.
Consider RMENVTVLGEDVIVNDELYLNGAS [GMPPB], for which the protein stability index worked out at 4.09 ± 0.072 (treatment: DMSO) and 4.1 ± 0.29 (treatment: MLN4924 1 uM, 8 h).
Consider RMGSSESTDSGFCLDSPGPLDSKE [CDC25A], for which the protein stability index is, setting by setting: (treatment: DMSO) 5.45 ± 0.14; (treatment: MLN4924 1 uM, 8 h) 5.47 ± 0.44.
For RMIFKLFSQETVMKFVPRYSLVLE [APMAP], in that order: 2.74 ± 0.55 and 2.51 ± 0.37.
For RMLHRSTQTTNDGVCQSMCHDKYT [ZMYND11], in that order: 3.94 ± 0.18 and 4.04 ± 0.32.
For RNALENIRKEMKLLEQAGSLKGSL [CRYL1], the protein stability index runs as follows: (treatment: DMSO) 3.32 ± 0.64; (treatment: MLN4924 1 uM, 8 h) 3.62 ± 0.32.
As to RNEGVSSVLLGASNADQLMENIGA [KCNAB2], the protein stability index was found to be 4.25 ± 0.09 (treatment: DMSO) and 4.42 ± 0.12 (treatment: MLN4924 1 uM, 8 h).
The matching figures for RNGGKYCEGRRTRFRSCNTEDCPT [ADAMTS4]: 4.15 ± 0.34 and 4.09 ± 0.32.
As to RNMLGLLGNVAEVKELRPQLMTSQ [ZER1], the protein stability index came to 3.09 ± 0.3 (treatment: DMSO) and 3.49 ± 0.69 (treatment: MLN4924 1 uM, 8 h).
RNRPSFDAILYYYQSGGRIRRPVN [KCNA3]: the protein stability index is, setting by setting: (treatment: DMSO) 2.3 ± 0.22; (treatment: MLN4924 1 uM, 8 h) 2.58 ± 0.31.
Take RPKLSEEQQRIIAILLDAHHKTYD [VDR]: the protein stability index runs as follows: (treatment: DMSO) 2.58 ± 0.28; (treatment: MLN4924 1 uM, 8 h) 2.75 ± 0.41.
Take RPLRSREFPQFEPQRYPACAQMLP [TRAF3IP2]: the protein stability index was found to be 3.07 ± 0.44 (treatment: DMSO) and 3.44 ± 0.15 (treatment: MLN4924 1 uM, 8 h).
The matching figures for RPRQRQRVYPKCTWLTTPKSTWPR [TCF25]: 3.17 ± 0.43 and 3.23 ± 0.2.
Regarding RPVNKLAELQCEVAALREEQKVLS [RASAL3], the protein stability index was 3.99 ± 0.35 (treatment: DMSO) and 4.19 ± 0.26 (treatment: MLN4924 1 uM, 8 h).
In turn, RQARKKGRHLELANQKLSEKLAAG [CCDC3] came in with a protein stability index (treatment: DMSO) of 4.777 ± 0.006.
Regarding RQKKLMHKLQEEKAFREEMKIFRE [CCDC70], the protein stability index by setting is: (treatment: DMSO) 3.37 ± 0.28; (treatment: MLN4924 1 uM, 8 h) 3.59 ± 0.35.
For RQVLCEKCKSTLSPPEASPGPPAA [PWWP2B], the protein stability index turned out to be 4.88 ± 0.14 (treatment: DMSO) and 4.83 ± 0.37 (treatment: MLN4924 1 uM, 8 h).
With RRKACQACRFTKCLRVGMLKEGVR [ESRRA], the protein stability index worked out at 2.23 ± 0.25 (treatment: DMSO) and 2.3 ± 0.51 (treatment: MLN4924 1 uM, 8 h).
In the case of RRLKQAKEEAQAEIEQYRLQREKE [ATP6V1G1], the protein stability index stood at 5.47 ± 0.33 (treatment: DMSO) and 5.38 ± 0.25 (treatment: MLN4924 1 uM, 8 h).
As to RRRFREKKKAIQEEEERDQALQAK [YJU2B], the protein stability index by setting is: (treatment: DMSO) 5.26 ± 0.36; (treatment: MLN4924 1 uM, 8 h) 5.33 ± 0.23.
Consider RSLQRGCRALRDPALDSLAYEYER [TRADD], for which the protein stability index by setting is: (treatment: DMSO) 3.13 ± 0.059; (treatment: MLN4924 1 uM, 8 h) 3.47 ± 0.32.
RSPYAGLQLGAAKKPPVTFAEKGE [TRIM29]: the protein stability index reads like this: (treatment: DMSO) 4.09 ± 0.22; (treatment: MLN4924 1 uM, 8 h) 4.26 ± 0.2.
With RSVKVICLGSLASKLSRKYVKAKK [FAN1], the protein stability index was found to be 2.37 ± 0.25 (treatment: DMSO) and 2.37 ± 0.28 (treatment: MLN4924 1 uM, 8 h).
On to RSVSEPRDQHPQPSLGDSLESIPS [RTN2], for which the protein stability index is, setting by setting: (treatment: DMSO) 5.34 ± 0.41; (treatment: MLN4924 1 uM, 8 h) 5.17 ± 0.24.
For RTIAETEAAYLKILESSQTLLSVL [SSNA1], in that order: 2.33 ± 0.29 and 2.72 ± 0.27.
For RTVNALEIELQAQHNLRDSLENTL [KRT34], the protein stability index reads like this: (treatment: DMSO) 3.41 ± 0.064; (treatment: MLN4924 1 uM, 8 h) 3.64 ± 0.42.
Regarding RVFSQGSHAWEVALGGLQSWRVGV [TRIM35], the protein stability index runs as follows: (treatment: DMSO) 2.46 ± 0.42; (treatment: MLN4924 1 uM, 8 h) 2.31 ± 0.38.
On to RVNKEHEHKLKVVRDQISHCTVKL [TRIM9], for which the protein stability index reads like this: (treatment: DMSO) 3.29 ± 0.31; (treatment: MLN4924 1 uM, 8 h) 3.39 ± 0.29.
RVQPVKDTAHDFRAKCRNMEHALR [TRIM35] yielded a protein stability index (treatment: DMSO) of 2.96 ± 0.44 and a protein stability index (treatment: MLN4924 1 uM, 8 h) of 3.25 ± 0.36.
RVYHGWLFEGLGRDKAEELLQLPD [SLA]: the protein stability index is, setting by setting: (treatment: DMSO) 3.01 ± 0.53; (treatment: MLN4924 1 uM, 8 h) 2.82 ± 0.57.

For the origin of these results see the supplement of paper PMC10567573.
